Assay results as given in patent US20240368574A1 (BELLICUM PHARMACEUTICALS, published 2024).

Target: four tandem FKBP12 domains expressed from pBP0722 pSH1-Fpk-Fpk'.LS.Fpk''.Fpk'''.LS.HA
Test: cell-based or functional assay

B1: FRBL-ΔCaspase-9 expressed from pBP0463 pSH1-FRBL.dCaspase9.T2A (other)
chain: EMWHEGLEEASRLYFGERNVKGMFEVLEPLHAMMERGPQTLKETSFNQAYGRDLMEAQEWCRKYMKSGNVKDLLQAWDLYYHVFRRISKSGGGSGVDDGFGDVGALESLRGNADLAYILSMEPCGHCLIINNVNFCRESGLRTRTGSNIDCEKLRRRFSSLHFMVEVKGDLTAKKMVLALLELARQDHGALDCCVVVILSHGCQASHLQFPGAVYGTDGCPVSVEKIVNIFNGTSCPSLGGKPKLFFIQACGGEQKDHGFEVASTSPEDESPGSNPEPDATPFQEGLRTFDQLDAISSLPTPSDIFVSYSTFPGFVSWRDPKSGSWYVETLDDIFEQWAHSEDLQSLLLRVANAVSVKGIYKQMPGCFNFLRKKLFFKTSASRAEGRGSLLTCGDVEENPGP
For B1, the “IC50 of rapamycin or C7-isopropoxy-rapamycin (the small-molecule heterodimerizer, not of a protein) for loss of SRα-SEAP reporter activity in transfected 293 cells” value was about 3 nM.
